US20240261333A1 (published 2024)

T1: S100A7 (human, UniProt P31151 2-101)
T1 construct: also called NP_002954.2
T1 sequence (looked up): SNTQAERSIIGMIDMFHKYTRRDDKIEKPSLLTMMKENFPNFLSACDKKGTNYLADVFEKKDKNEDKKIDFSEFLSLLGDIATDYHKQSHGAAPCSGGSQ

T2: CPSF7 (human, UniProt Q8N684 1-471)
T2 construct: also called NP_001129512.1 (+5)
T2 sequence (looked up): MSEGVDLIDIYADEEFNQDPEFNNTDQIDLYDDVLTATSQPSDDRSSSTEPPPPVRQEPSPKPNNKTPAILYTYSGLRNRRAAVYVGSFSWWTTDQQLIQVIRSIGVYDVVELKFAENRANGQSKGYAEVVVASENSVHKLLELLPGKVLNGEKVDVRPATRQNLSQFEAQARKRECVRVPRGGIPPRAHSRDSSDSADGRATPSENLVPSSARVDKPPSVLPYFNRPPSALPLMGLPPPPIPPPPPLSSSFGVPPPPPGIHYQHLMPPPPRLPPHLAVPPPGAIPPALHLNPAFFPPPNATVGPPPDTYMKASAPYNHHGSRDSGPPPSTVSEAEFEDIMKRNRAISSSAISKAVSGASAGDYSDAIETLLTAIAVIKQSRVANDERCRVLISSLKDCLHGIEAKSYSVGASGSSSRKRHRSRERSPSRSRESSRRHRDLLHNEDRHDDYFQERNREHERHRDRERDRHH

T3: SBSN (human, UniProt Q6UWP8 26-590)
T3 construct: also called NP_00159506.1 (+2)
T3 sequence (looked up): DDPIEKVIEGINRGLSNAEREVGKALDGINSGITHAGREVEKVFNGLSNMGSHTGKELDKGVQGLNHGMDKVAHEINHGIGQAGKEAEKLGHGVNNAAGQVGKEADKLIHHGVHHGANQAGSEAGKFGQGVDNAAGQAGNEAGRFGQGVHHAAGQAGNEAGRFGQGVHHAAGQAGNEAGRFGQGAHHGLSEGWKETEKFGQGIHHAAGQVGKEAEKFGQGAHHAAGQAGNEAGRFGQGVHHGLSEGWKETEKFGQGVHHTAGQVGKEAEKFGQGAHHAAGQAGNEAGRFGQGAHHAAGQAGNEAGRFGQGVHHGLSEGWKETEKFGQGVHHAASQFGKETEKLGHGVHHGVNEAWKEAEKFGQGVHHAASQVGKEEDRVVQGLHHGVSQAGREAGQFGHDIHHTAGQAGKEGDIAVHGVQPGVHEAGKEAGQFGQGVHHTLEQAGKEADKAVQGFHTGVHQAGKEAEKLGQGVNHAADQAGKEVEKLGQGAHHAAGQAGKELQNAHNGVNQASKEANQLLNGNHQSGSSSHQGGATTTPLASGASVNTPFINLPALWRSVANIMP

B1: C-terminal FLAG tagged B3GNT2 (enzyme, human, UniProt Q9NY97 1-397, looked up)
chain: MSVGRRRIKLLGILMMANVFIYFIMEVSKSSSQEKNGKGEVIIPKEKFWKISTPPEAYWNREQEKLNRQYNPILSMLTNQTGEAGRLSNISHLNYCEPDLRVTSVVTGFNNLPDRFKDFLLYLRCRNYSLLIDQPDKCAKKPFLLLAIKSLTPHFARRQAIRESWGQESNAGNQTVVRVFLLGQTPPEDNHPDLSDMLKFESEKHQDILMWNYRDTFFNLSLKEVLFLRWVSTSCPDTEFVFKGDDDVFVNTHHILNYLNSLSKTKAKDLFIGDVIHNAGPHRDKKLKYYIPEVVYSGLYPPYAGGGGFLYSGHLALRLYHITDQVHLYPIDDVYTGMCLQKLGLVPEKHKGFRTFDIEEKNKNNICSYVDLMLVHSRKPQEMIDIWSQLQSAHLKC
notes: FLAG-tagged ORF overexpressed in cells; pulled down from lysate with mouse anti-FLAG; also called C-FLAG B3GNT2; C-term flag; not shown: C-terminal FLAG tag
B2: C-terminal FLAG tagged B3GNT2 (enzyme, human, UniProt Q9NY97 1-397, looked up)
chain: MSVGRRRIKLLGILMMANVFIYFIMEVSKSSSQEKNGKGEVIIPKEKFWKISTPPEAYWNREQEKLNRQYNPILSMLTNQTGEAGRLSNISHLNYCEPDLRVTSVVTGFNNLPDRFKDFLLYLRCRNYSLLIDQPDKCAKKPFLLLAIKSLTPHFARRQAIRESWGQESNAGNQTVVRVFLLGQTPPEDNHPDLSDMLKFESEKHQDILMWNYRDTFFNLSLKEVLFLRWVSTSCPDTEFVFKGDDDVFVNTHHILNYLNSLSKTKAKDLFIGDVIHNAGPHRDKKLKYYIPEVVYSGLYPPYAGGGGFLYSGHLALRLYHITDQVHLYPIDDVYTGMCLQKLGLVPEKHKGFRTFDIEEKNKNNICSYVDLMLVHSRKPQEMIDIWSQLQSAHLKC
notes: FLAG-tagged ORF overexpressed in A375 cells; pulled down from the lysate with mouse anti-FLAG; also called C-FLAG B3GNT2; C-term flag; not shown: C-terminal FLAG tag

Legend:
Assay in all cases: co-IP with anti-FLAG, C-FLAG B3GNT2, mass spectrometry
[1] = molecular target: T4, FLG (human, UniProt P20930 1-4061, limits assumed)
T4 construct: also called NP_002007.1
T4 sequence (P20930 whole entry): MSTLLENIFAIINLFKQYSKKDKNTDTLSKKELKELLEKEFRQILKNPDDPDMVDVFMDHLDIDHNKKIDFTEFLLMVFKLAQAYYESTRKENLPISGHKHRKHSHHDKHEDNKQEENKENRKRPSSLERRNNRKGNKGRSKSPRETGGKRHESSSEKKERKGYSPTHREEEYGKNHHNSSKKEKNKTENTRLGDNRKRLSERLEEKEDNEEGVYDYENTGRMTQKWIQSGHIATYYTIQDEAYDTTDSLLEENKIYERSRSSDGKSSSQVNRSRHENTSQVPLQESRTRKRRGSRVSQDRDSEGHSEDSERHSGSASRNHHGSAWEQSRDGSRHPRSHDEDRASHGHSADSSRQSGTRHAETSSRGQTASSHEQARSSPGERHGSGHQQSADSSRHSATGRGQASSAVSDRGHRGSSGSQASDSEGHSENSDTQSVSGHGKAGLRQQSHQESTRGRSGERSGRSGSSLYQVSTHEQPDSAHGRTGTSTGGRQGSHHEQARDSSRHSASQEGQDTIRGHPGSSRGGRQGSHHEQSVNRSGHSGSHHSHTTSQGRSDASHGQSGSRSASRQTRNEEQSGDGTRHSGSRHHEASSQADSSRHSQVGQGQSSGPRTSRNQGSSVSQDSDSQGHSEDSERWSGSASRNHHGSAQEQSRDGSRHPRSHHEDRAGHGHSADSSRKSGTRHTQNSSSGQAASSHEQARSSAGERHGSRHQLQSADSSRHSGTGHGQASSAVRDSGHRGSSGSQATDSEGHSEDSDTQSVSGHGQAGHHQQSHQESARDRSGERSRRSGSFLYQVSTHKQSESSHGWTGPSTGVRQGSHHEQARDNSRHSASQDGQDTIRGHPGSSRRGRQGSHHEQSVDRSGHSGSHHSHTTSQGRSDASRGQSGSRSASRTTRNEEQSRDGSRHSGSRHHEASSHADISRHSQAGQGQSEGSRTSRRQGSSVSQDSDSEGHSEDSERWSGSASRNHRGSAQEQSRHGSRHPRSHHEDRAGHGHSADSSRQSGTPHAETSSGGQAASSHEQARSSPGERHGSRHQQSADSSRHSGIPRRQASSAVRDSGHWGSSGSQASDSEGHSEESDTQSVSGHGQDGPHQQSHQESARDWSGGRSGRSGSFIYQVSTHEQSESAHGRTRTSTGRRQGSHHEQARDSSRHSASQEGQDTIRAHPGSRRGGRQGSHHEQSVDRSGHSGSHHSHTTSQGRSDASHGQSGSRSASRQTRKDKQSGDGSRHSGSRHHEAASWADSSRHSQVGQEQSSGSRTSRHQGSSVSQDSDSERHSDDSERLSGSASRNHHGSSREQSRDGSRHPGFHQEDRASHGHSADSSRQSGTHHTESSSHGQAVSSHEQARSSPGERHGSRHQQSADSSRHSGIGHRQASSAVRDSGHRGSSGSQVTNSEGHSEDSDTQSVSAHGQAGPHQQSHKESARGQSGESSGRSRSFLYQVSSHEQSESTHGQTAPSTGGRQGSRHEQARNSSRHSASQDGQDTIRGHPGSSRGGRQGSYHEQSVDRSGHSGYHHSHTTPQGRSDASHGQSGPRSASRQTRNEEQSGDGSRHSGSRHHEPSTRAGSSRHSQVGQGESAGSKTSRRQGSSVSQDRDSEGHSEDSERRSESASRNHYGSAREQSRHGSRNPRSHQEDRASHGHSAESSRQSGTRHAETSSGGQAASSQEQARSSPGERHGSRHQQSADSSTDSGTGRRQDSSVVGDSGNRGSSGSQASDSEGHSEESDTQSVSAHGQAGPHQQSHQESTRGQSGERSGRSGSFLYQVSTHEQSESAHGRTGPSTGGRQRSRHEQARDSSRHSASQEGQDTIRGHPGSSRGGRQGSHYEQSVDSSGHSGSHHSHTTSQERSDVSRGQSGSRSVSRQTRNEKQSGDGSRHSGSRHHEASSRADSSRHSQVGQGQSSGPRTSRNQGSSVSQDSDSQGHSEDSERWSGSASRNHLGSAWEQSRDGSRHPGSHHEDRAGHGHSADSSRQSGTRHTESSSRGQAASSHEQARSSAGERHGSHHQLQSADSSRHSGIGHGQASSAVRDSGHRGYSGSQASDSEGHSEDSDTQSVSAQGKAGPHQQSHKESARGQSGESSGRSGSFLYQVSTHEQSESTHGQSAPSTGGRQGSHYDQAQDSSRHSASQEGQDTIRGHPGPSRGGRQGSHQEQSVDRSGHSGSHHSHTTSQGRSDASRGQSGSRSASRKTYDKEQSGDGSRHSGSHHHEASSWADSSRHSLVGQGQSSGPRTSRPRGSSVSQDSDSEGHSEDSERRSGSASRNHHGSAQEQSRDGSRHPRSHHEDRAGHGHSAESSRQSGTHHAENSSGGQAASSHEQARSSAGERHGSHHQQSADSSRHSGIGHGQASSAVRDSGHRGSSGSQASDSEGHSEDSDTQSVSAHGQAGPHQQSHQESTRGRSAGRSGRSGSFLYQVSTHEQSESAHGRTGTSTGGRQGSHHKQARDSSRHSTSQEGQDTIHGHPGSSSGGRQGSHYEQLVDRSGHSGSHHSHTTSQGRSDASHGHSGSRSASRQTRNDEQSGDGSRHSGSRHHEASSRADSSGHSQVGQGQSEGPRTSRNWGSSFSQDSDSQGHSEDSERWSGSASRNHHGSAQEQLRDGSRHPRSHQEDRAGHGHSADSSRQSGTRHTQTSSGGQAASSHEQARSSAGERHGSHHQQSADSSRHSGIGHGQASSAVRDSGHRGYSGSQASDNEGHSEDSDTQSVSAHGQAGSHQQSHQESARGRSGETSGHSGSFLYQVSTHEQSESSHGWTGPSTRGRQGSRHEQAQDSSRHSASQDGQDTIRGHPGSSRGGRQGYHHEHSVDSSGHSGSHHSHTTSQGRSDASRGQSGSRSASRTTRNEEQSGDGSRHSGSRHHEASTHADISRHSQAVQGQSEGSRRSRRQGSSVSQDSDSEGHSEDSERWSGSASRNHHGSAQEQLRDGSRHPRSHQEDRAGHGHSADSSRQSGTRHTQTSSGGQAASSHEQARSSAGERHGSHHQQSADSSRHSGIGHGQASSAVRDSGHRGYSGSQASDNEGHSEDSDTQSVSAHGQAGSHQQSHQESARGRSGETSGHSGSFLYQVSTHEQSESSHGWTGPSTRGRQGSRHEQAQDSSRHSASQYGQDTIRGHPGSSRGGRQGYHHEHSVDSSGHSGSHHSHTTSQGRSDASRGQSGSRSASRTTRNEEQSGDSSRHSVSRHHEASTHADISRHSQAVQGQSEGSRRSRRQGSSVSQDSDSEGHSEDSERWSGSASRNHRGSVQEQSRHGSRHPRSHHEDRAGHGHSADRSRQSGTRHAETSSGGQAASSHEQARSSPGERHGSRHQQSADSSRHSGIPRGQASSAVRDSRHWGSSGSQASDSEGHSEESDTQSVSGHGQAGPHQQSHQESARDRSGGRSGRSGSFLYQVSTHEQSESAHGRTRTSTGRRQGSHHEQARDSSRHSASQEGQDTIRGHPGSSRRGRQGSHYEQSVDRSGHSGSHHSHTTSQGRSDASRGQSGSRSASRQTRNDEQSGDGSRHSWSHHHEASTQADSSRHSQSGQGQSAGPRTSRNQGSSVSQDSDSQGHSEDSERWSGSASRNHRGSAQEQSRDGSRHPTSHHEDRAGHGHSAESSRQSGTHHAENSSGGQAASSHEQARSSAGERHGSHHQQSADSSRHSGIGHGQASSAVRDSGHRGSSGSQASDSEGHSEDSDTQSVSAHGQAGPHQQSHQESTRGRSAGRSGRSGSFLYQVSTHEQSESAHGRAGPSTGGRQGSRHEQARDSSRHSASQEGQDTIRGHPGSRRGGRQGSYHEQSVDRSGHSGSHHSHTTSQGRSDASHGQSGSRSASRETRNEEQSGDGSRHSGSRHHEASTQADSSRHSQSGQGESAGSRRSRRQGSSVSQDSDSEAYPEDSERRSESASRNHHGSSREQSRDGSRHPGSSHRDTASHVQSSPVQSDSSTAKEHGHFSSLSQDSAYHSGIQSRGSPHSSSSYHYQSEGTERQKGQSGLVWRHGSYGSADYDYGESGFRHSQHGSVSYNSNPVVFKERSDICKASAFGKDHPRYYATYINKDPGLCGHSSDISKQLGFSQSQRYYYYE

[2] = molecular target: T1, S100A7
[3] = molecular target: RPL38 (human, UniProt P63173 1-70)
[4] = molecular target: RPL17 (human, UniProt P18621 2-184)
[5] = molecular target: T2, CPSF7
[6] = molecular target: T5, DDX3X (human, UniProt O00571 2-662)
T5 construct: also called NP_001180345.1 (+1)
T5 sequence (O00571 2-662 limits assumed): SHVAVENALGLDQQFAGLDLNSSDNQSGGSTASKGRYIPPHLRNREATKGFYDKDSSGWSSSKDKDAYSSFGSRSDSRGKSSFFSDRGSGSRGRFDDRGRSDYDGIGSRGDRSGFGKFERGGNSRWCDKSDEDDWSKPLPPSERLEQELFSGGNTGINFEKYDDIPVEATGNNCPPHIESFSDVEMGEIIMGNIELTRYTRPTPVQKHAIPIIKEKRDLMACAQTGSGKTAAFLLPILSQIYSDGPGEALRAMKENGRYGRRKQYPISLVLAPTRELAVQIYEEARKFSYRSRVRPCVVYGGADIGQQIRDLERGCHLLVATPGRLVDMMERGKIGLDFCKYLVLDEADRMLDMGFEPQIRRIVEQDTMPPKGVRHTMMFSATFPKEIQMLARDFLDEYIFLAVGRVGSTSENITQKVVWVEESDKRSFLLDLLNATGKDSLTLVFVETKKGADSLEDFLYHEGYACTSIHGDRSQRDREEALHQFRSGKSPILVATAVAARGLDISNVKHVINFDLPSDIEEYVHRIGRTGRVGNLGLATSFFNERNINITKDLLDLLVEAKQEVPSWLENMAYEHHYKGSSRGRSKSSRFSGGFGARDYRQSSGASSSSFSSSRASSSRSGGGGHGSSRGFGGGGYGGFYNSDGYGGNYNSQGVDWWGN

[7] = molecular target: T3, SBSN
[8] = molecular target: T6, HBB (human, UniProt P68871 2-147)
T6 construct: also called NP_000509.1
T6 sequence (P68871 2-147 limits assumed): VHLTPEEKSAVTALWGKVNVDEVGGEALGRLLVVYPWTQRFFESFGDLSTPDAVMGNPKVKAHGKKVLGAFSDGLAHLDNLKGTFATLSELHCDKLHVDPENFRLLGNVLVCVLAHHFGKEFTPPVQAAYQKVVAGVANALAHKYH

Row | Binder | co-IP mass spectrometry count [1] | co-IP mass spectrometry count [2] | co-IP mass spectrometry count [3] | co-IP/MS count, C-term flag [4] | co-IP/MS count, C-term flag [5] | co-IP/MS count, C-term flag [6] | co-IP/MS count, C-term flag [7] | co-IP/MS count, C-term flag [8]
1 | B1 | 22 | 5 | 8 | – | – | – | – | –
2 | B2 | – | – | – | 0 | 9 | 23 | 25 | 0
